Data as given in paper PMC9954413.

What was measured:
UbcH5B (Homo sapiens) = UbcH5B (Homo sapiens) (UniProt P62837); assay: ITC; conditions: cited from earlier work
[1] = target: Arkadia (RNF111) LONG, residues 876-994 (Ark LONG, 119 aa) (human) (UniProt Q6ZNA4)
[2] = target: Arkadia (RNF111) LONG, residues 876-994 (Ark LONG, 119 aa) (human) (UniProt Q6ZNA4); assay: ITC; 1-3 mM E2 in the syringe injected (2 uL, 15-19 injections) into 100-300 uM Arkadia polypeptide in the cell; 25 °C; 50 mM KH2PO4, 50 mM K2HPO4 pH 7; single-site model
[3] = target: Arkadia LONG R983K (human) (UniProt Q6ZNA4); assay: as above
[4] = target: Arkadia LONG R983A (human) (UniProt Q6ZNA4); assay: as above
Chain of Arkadia LONG R983A (human) (Q6ZNA4 876-994 R983A): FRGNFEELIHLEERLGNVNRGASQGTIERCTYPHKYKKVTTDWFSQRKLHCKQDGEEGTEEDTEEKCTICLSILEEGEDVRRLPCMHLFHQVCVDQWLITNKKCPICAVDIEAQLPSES

Chain of UbcH5B (UBE2D2) (P62837 whole entry): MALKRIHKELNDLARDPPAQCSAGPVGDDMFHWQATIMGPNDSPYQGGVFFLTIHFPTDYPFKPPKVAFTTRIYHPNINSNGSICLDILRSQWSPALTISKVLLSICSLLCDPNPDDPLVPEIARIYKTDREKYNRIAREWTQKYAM
Chain of Arkadia (RNF111) LONG, residues 876-994 (Ark LONG, 119 aa) (human) (Q6ZNA4 876-994): as the sequence (Q6ZNA4 876-994 R983A) above, with A108R counted along it
Chain of Arkadia LONG R983K (human) (Q6ZNA4 876-994 R983K): as the sequence (Q6ZNA4 876-994 R983A) above, with A108K counted along it
Chain of Arkadia RING RING (Q6ZNA4 939-986): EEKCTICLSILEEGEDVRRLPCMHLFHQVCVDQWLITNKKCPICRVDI
Chain of UbcH5B (Homo sapiens) (P62837 whole entry, the tested form may be a part): as the sequence (P62837 whole entry) above

Row | in vitro auto-ubiquitylation of Ark LONG: time until polyubiquitylation is achieved [1] | dH [2] | stoichiometry N [2] | dH [3] | stoichiometry N [3] | dH [4] | stoichiometry N [4] | Substance | Kd (UbcH5B (Homo sapiens))
1 |  |  |  |  |  |  |  | Arkadia RING RING (from UniProt Q6ZNA4) | 32 µM
2 | 5 min | -4.7 kcal/mol | 0.6 | -3.6 kcal/mol | 0.5 | -5.8 kcal/mol | 0.7 | UbcH5B (UBE2D2) (from UniProt P62837 1-147) (enzyme) | 
